{
  "source": "patent US20100166746A1",
  "about": "(published 2010)",
  "molecular_target": "T1, human EphA2 antigen (human, UniProt P29317 24-534, limits assumed)",
  "T1 construct": "also called human EphA2 tumor antigen",
  "T1 sequence (P29317 24-534 limits assumed)": "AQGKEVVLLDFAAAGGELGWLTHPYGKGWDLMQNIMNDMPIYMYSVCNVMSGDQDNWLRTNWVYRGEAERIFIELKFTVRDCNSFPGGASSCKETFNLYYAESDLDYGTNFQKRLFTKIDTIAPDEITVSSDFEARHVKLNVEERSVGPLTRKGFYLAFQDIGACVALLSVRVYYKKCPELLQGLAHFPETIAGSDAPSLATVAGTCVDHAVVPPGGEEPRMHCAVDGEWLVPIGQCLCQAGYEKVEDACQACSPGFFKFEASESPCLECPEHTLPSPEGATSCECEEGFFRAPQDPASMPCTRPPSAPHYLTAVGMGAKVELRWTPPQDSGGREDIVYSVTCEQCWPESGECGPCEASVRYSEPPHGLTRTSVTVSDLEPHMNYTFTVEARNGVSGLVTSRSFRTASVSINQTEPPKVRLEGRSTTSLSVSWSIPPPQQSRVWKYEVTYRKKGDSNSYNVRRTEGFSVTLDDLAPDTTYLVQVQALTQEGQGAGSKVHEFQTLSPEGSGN",
  "assay": "kinetic parameters, ratio to G5 reference",
  "data": [
    {"binder": "3F2 anti-EphA2 antibody (antibody, V domains shown) VH: EVQLVESGGGVVRPGGSLRLSCAASGFTVSDYSMNWVRQAPGKGLEWIGFIRNKANAYTTEYSASVKGRFTISRDDSKNTLYLQMNSLKTEDTAVYYCTTYPRYHAMDSWGQGTMVTVSS VL: AIQLTQSPSSLSASVGDRVTITCRASQSISNNLHWYLQKPGQSPQLLIYYGFQSISGVPSRFSGSGSGTDFTLTISSLQPEDFATYYCQQANSWPLTFGGGTKLEIK", "values": [
      {"measurement": "fold faster Koff as compared to G5", "result": "~3", "unit": "fold"},
      {"measurement": "fold faster Kon as compared to G5", "result": "~3.5", "unit": "fold"}
    ]}
  ]
}
